# According to paper PMC4514111:
# Target: PARP-1 (recombinant, unmodified) (UniProt P09874 1-1014)
# Test: EMSA
# Chain of PARP-1 (recombinant, unmodified) (P09874 whole entry): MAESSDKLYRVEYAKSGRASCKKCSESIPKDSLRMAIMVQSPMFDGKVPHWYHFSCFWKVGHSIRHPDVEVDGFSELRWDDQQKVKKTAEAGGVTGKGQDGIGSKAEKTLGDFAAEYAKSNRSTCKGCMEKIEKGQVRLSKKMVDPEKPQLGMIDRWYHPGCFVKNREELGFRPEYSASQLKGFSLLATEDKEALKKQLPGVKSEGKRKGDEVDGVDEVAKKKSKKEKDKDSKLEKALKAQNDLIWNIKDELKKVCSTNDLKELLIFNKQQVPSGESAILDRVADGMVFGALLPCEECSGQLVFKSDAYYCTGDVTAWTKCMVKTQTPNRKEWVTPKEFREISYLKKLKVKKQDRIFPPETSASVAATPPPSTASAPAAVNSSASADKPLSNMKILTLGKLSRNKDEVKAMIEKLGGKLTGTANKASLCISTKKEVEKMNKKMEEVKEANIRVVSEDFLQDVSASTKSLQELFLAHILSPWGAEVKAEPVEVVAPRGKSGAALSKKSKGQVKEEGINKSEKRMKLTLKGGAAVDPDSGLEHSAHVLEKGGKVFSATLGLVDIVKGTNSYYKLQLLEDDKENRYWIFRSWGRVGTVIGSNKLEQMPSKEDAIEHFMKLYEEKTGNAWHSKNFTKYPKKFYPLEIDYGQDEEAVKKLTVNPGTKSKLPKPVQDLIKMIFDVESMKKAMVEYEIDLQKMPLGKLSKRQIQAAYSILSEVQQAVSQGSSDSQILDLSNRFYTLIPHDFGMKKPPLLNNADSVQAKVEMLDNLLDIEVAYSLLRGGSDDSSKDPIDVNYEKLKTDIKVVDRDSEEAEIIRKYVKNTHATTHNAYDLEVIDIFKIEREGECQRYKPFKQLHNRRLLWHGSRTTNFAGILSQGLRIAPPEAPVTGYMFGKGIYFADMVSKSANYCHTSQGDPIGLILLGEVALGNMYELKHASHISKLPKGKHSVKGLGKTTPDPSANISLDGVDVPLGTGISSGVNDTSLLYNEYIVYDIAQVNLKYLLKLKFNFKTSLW
binder,measurement,value
NS (MOR poly(C) sequence) (dsDNA) DNA 1: CTTCTGCTCCCCCCCCCCCTACCC DNA 2: GGGTAGGGGGGGGGGGAGCAGAAG,binding result,binds
